How the values were obtained:
[1] = biological target: hepatitis B surface antigen (HBsAg), purified from human plasma (hepatitis B virus); assay: competition inhibition ELISA: free HBsAg against HBsAg-coated wells; I50 of antigen multiplied by 100
[2] = biological target: hepatitis B surface antigen (HBsAg), purified from human plasma (hepatitis B virus); assay: indirect competition ELISA on HBsAg-coated wells; highest attainable concentration of unlabeled Fab; competitor: biotinylated HBV#8 Fab
[3] = biological target: hepatitis B surface antigen (HBsAg), purified from human plasma (hepatitis B virus); assay: indirect competition ELISA on HBsAg-coated wells; highest attainable concentration of unlabeled Fab; competitor: HBV#8 IgG
[4] = biological target: hepatitis B surface antigen (HBsAg), purified from human plasma (hepatitis B virus); assay: competition inhibition ELISA; Kd of the IgG against Kd of the Fab

Sequence of hepatitis B surface antigen (HBsAg), purified from human plasma (hepatitis B virus) (P03141 175-400): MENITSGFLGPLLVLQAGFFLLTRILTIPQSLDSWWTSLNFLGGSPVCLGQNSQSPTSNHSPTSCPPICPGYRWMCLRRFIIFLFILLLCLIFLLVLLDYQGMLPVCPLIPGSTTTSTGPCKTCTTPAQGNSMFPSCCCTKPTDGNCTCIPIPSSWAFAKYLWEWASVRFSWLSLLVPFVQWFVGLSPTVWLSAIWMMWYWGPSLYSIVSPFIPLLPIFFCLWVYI

B1: HBV#8 Fab (Fab, V domains shown)
VH: EVQLLESGPGLVKPSQTLSLTCAVSGAFMTSDYLYWSWLRQPPGKGPEWIGGIYTTGRSHYNPSLRGRATLSVDTSKNQFSLELNSVTAADTAVYYCARGQYHNWGPSLFDYYNYYYMDVWGKGTTVTVSS
VL: AAELTQSPSSLSASVGDRVTITCRASQDISNYLAWYQQKPGKAPKLLIYSASRLQSGVPSRFSGSGSGTDYTLTLSSLHPEDSATYYCHQYHSAPWTFGQGTKVEIKR
Kd [1]: 1900 nM | percent inhibition of binding [2]: 66% | percent inhibition of binding [3]: 57%

B2: HBV#8 IgG (antibody, V domains shown)
VH: EVQLLESGPGLVKPSQTLSLTCAVSGAFMTSDYLYWSWLRQPPGKGPEWIGGIYTTGRSHYNPSLRGRATLSVDTSKNQFSLELNSVTAADTAVYYCARGQYHNWGPSLFDYYNYYYMDVWGKGTTVTVSS
VL: AAELTQSPSSLSASVGDRVTITCRASQDISNYLAWYQQKPGKAPKLLIYSASRLQSGVPSRFSGSGSGTDYTLTLSSLHPEDSATYYCHQYHSAPWTFGQGTKVEIKR
Kd [1]: 25 nM | fold improvement of affinity (IgG against Fab) [4]: 75 fold

From US20110097270A1
